What was measured:
Test in all cases: cell-based or functional assay
[1] = target: GFP^2-Pflu-H3-RLuc2 fusion protein
[2] = target: GFP^2-Pflu1-RLuc2 fusion protein (Pflu sensor 1)
[3] = target: GFP^2-plas1-RLuc2 fusion protein (BRET^2 plasmin sensor)
[4] = target: GFP^2-Pflu2-RLuc2 fusion protein (Pflu sensor 2)
[5] = target: GFP^2-Pflu3-RLuc2 fusion protein (Pflu sensor 3)

Sequence of bovine plasmin (Sigma) (P06868 104-812 limits assumed): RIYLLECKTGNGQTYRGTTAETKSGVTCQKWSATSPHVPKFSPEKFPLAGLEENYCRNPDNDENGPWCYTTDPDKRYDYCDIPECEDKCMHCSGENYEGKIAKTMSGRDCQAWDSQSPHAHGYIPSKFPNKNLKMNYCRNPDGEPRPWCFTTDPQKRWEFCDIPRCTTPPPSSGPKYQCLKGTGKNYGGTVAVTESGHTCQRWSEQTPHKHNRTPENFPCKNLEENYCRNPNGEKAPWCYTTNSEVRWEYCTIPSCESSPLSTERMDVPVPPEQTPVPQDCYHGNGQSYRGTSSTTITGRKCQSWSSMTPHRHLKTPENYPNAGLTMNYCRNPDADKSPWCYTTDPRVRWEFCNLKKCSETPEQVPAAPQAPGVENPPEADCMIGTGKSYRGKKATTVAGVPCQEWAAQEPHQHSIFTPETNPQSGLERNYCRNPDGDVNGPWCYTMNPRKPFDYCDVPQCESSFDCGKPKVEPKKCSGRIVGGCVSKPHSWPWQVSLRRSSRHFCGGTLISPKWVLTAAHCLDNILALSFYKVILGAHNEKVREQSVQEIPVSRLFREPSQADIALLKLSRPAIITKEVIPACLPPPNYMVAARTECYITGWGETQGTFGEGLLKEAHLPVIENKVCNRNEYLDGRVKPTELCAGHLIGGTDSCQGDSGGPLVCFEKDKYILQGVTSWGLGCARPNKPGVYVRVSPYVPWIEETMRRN
Sequence of human plasmin (Sigma) (P00747 97-810 limits assumed): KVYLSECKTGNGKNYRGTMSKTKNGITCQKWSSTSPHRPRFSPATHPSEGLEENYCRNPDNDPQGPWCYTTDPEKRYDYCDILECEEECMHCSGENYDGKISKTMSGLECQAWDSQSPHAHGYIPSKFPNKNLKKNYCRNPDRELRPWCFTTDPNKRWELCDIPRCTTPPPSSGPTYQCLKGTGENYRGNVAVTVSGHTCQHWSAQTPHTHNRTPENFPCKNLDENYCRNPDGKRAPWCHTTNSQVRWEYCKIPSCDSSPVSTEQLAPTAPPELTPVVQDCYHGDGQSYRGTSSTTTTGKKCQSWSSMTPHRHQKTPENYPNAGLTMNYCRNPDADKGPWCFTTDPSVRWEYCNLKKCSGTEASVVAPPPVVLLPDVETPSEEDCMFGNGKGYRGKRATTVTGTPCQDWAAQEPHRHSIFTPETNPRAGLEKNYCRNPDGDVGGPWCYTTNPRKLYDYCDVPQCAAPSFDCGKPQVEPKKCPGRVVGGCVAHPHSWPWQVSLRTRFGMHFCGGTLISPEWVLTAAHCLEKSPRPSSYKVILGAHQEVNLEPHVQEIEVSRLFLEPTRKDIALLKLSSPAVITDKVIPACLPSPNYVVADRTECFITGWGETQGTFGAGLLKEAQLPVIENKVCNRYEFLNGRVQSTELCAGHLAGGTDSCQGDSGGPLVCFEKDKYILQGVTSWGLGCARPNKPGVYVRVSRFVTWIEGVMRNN

Substance	EC50, BRET^2 response, raw milk [1]	EC50, BRET^2 response, 50% full fat UHT milk [2]	EC50, BRET^2 response, 50% full fat UHT milk [3]	EC50, BRET^2 response, raw milk [2]	EC50, BRET^2 response, raw milk, protease concentration by BSA standard [2]	EC50, BRET^2 response, 50% full fat UHT milk [4]	EC50, BRET^2 response, 50% full fat UHT milk [5]	also measured
bovine plasmin (Sigma) (from UniProt P06868 97-805) (enzyme)	174 nM	169 nM	108 nM					
crude bacterial protease from Pseudomonas fluorescens strain 65 (enzyme)	0.5 nM	0.7 nM	50 nM	0.14 nM	1.63 nM	2.6 nM	2.3 nM	EC50, BRET^2 response, raw milk, protease concentration by BSA standard [1]: 5.4 nM; EC50, BRET^2 response, 50% full fat UHT milk, protease concentration by BSA standard [2]: 8.2 nM; EC50, BRET^2 response, 50% raw milk, no pre-treatment, 10 mins. incubation [2]: 0.14 nM; EC50, BRET^2 response, 50% raw milk, no pre-treatment, 2 hrs incubation [2]: 0.0339 nM; EC50, BRET^2 response, 50% raw milk, pre-treatment, 10 mins. incubation [2]: 0.353 nM; EC50, BRET^2 response, 50% raw milk, pre-treatment, 2 hrs incubation [2]: 0.1 nM; EC50, BRET^2 response, 50% full fat UHT milk, protease concentration by BSA standard [4]: 30.4 nM; EC50, BRET^2 response, 50% full fat UHT milk, protease concentration by BSA standard [5]: 26.4 nM; EC50, BRET^2 response, 50% full fat UHT milk, protease concentration by BSA standard [3]: 580 nM; EC50, BRET^2 response, raw milk [3]: 1.4 nM; EC50, BRET^2 response, raw milk, protease concentration by BSA standard [3]: 16.2 nM
crude bacterial protease from Pseudomonas fluorescens strain 117 (enzyme)				0.2 nM	2.6 nM			
human plasmin (Sigma) (from UniProt P00747 97-810) (enzyme)		124 nM	5.6 nM			926 nM	1280 nM	EC50, BRET^2 response, heat treated raw milk, one-step pre-treatment protocol [3]: 24.2 nM; EC50, BRET^2 response, heat treated raw milk, one-step pre-treatment with low power sonication [3]: 29.3 nM; EC50, BRET^2 response, heat treated raw milk, pre-treatment protocol of Rauh et al. (2014) [3]: 19.5 nM; EC50, BRET^2 response, heat treated raw milk, two-step pre-treatment protocol [3]: 16 nM
